The values below come from patent US20140056903A1 (Regeneron, published 2014).

Some results are limits rather than exact numbers.

This test has as its target T1, human GFRα3 expressed with a C-terminal mFc tag (human).
T1 construct: also called hGFRα3-mFc
T1 chain: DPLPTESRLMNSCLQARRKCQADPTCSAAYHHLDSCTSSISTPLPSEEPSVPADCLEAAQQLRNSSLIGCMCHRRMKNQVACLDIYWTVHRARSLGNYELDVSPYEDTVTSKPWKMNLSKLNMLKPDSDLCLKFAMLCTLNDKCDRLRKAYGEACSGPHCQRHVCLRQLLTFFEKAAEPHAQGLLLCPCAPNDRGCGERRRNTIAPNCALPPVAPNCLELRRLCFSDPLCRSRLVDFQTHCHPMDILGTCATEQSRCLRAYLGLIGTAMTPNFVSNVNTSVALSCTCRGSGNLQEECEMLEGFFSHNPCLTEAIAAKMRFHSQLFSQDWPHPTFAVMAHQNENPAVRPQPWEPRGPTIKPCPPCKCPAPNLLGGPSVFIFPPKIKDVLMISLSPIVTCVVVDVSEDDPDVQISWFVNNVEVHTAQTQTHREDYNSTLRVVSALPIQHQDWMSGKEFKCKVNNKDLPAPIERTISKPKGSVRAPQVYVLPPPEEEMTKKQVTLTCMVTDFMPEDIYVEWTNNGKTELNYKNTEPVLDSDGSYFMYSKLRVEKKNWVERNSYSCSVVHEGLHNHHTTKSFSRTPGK
In words: SPR, Ab captured, 25C; 25° C.

B1: H4H2292S (antibody, human IgG4, V domains shown)
VH: EVQLVESGGGVVQPGRSLRLSCAASGFTFSSYGMHWVRQAPGKGLEWVSFIWYDGSNKYYADSVKGRFTISRDNSKNTLYLQMNSLTAEDTAVYYCARRGILTGTTAFDIWGQGTMVTVSS
VL: DIQMTQSPSSLSASVGDRVTITCRASQSISSYLNWYQQKPGKAPKLLIYAASSLQSGVPSRFSGSGSGTDFTLTIRSLIPEDFATYYCQQTYNTPFTFGPGTKVEIK
notes: human IgG4 Fc (H4H)
B1 gave a koff of no more than 1e-06 s⁻¹.
